Test results taken from US20100144630.

Columns and labels:
[1] = tested on: heat-inactivated alpha-1 antitrypsin
[2] = tested on: alpha-1 antitrypsin (native, not heat-inactivated)

Elastase
elastase activity: hydrolysis of N-Succinyl-Ala-Ala-Ala-p-nitroanalide, absorbance at 410 nm [1]: combining HIAAT with elastase produced a curve similar to that of elastase alone. This demonstrated that HIAAT possessed no detectable elastase neutralizing activity | elastase activity: hydrolysis of N-Succinyl-Ala-Ala-Ala-p-nitroanalide, absorbance at 410 nm [2]: Combining native (NOT heat-inactivated) AAT ablated elastase processing of the N-Succinyl-Ala-Ala-Ala-p-nitroanalide substrate and blocked the increase in A410 nm
